Experimental findings from patent US20240002514A1 (IGM BIOSCIENCES, published 2024) are described below.

Positions count from the first letter of the chain named.

The target of assay [1] is T1, human PD-L1 expressed on the cell surface (CHO cells expressing human PD-L1; Promega CS187103 / 187103 cells) (human, UniProt Q9NZQ7 19-290). The experiment in a line: cell-based or functional assay.
The target in assay [2] is T1, human PD-L1 expressed on the cell …. The experiment in a line: cell-based or functional assay. This is another data set of the same source.
Assay [3] addresses T2, recombinant human PD-L2 Fc chimera protein (Sino Biological, cat #10292-H02H) (human, UniProt Q9BQ51 20-219).
T2 construct: Fc part of the bought chimera not given
T2 sequence (looked up): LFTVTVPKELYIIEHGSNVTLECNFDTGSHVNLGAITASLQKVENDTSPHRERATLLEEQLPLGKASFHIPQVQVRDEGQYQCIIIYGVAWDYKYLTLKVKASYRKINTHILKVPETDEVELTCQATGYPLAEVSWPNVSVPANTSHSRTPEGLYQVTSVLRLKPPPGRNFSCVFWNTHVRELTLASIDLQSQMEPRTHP
The assay can be described thus: ELISA on directly coated human PD-L2 Fc chimera (1 ug/mL), detection anti-human kappa light chain-HRP. The method, then:
(§1) Recombinant human PD-L1 Fc chimera (Sino Biological, cat #10084-H02H), recombinant cynomolgous monkey PD-L1 Fc chimera (Sino Biological, cat #90251-C02H), recombinant mouse PD-L1 Fc chimera (Sino Biologicals, cat #50010-M02H) and recombinant human PD-L2 Fc chimera protein (Sino Biological, cat #10292-H02H) were coated directly onto the ELISA plates at 1 ug/mL by overnight incubation at 4° C. The plates were washed 3× with PBS 0.05% TWEEN® and dried by tapping several times on paper towels. All the plates were blocked with 200 uL of 1% milk for 1 hr at RT. […] Fifty μL of the diluted antibodies were added to the respective wells in all the plates. Positive control antibody (mouse anti-human PD-L1, 29E.2A3, (BioLegend, cat #329702) and its isotype control mouse IgG2b k (BioLegend, cat #400302) were serially diluted 3-fold in 1% milk starting at 3 ug/mL to 0.1 ng/mL and 50 uL of the titrated antibodies were added to their respective plates/wells. Similarly rat anti mouse PD-L1 (BioLegend, cat #124302) and rat IgG2b isotype (BioLegend, cat #400622), anti-human PD-L2 (BioLegend, cat #345502) with mouse IgG1 isotype (BioLegend, cat #4011402) were titrated as above and added to its respective plates/wells. The plates were incubated for 1 hr at RT. […] For the control wells, appropriate secondary antibodies, goat anti mouse HRP (Southern Biotech, cat #1033) and mouse anti rat HRP (Southern Biotech, cat #3070-05), were diluted and incubated as above. After repeating the wash and drying step, the plates were developed for 20-30 min with 50 uL TMB substrate (BD OPTEIA®, cat #555214). The reaction was stopped with 50 uL of 2N H2SO4 and absorbance at 450 nm was read on a SPECTRAMAX® Gemini™ spectrophotometer.
In general terms: ELISA stands for enzyme-linked immunosorbent assay.

In assay [4] the target is T1, human PD-L1 expressed on the cell …. The assay can be described thus: cell-based or functional assay. The source holds these as a separate data set.
The target in assay [5] is T3, recombinant mouse PD-L1 Fc chimera (Sino Biologicals, cat #50010-M02H) (mouse, UniProt Q9EP73 19-238).
T3 construct: Fc part of the bought chimera not given
The experiment in a line: ELISA on directly coated mouse PD-L1 Fc chimera (1 ug/mL), detection anti-human kappa light chain-HRP. The method, then:
as §1

The target in assay [6] is T4, recombinant cynomolgus monkey PD-L1 Fc chimera (Sino Biological, cat #90251-C02H) (cynomolgus monkey, UniProt G7PSE7 19-239).
T4 construct: also called Cyno PD-L1; Fc part of the bought chimera not given
The assay can be described thus: ELISA on directly coated cynomolgus PD-L1 Fc chimera (1 ug/mL), detection anti-human kappa light chain-HRP. The method, then:
as §1

Assay [7] addresses T1, human PD-L1 expressed on the cell …. The experiment in a line: flow cytometry competition on CHO cells expressing human PD-L1; cells pre-incubated with unlabeled antibody, then Alexa Fluor 647-labeled S70 (1 µg/mL). The method, then: (§2) Antibody cross-blocking analysis was conducted by the following method. […] Fluorescent staining intensities were determined using the FACSCalibur™ system. Competition of by the identical antibody was a positive control while the lack of competition by the irrelevant antibody was a negative control.
(In flow cytometry, cells or beads pass a laser one at a time.)

The target is the same in assay [8]. The assay can be described thus: flow cytometry competition on CHO cells expressing human PD-L1; cells pre-incubated with unlabeled antibody, then Alexa Fluor 647-labeled 3C5 (1 µg/mL). The method, then: as §2

T3 sequence (Q9EP73 19-238, stated change not applied): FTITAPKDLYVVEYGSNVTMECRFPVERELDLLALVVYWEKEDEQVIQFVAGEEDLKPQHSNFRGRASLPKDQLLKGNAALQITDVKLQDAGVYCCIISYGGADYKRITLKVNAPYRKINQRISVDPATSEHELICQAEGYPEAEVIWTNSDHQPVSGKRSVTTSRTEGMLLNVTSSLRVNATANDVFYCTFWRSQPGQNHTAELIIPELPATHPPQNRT
T1 sequence (Q9NZQ7 19-290): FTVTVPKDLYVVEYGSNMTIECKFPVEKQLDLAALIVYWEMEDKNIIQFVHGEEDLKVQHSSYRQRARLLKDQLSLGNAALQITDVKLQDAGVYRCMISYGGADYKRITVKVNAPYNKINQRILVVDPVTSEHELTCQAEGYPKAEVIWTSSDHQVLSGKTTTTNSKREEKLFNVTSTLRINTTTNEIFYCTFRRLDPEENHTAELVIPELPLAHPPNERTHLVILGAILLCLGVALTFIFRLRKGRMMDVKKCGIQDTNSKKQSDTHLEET
T4 sequence (G7PSE7 entry or part of it C02H C02H): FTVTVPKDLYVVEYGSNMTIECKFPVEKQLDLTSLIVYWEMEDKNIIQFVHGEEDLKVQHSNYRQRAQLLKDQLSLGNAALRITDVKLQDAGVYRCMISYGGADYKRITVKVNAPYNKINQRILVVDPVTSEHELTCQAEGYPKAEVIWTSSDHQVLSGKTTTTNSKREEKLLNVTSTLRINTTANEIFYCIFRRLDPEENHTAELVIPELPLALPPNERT

B1: h3C5H3-h3C5L2 (humanized 3C5, IgG) (antibody, V domains shown)
VH: QVQLQESGPGLVKPSETLSITCTVSGFSLTSYDISWVRQPPGKGLEWLGVIWTGVGTNYNPSFKSRLTISKDTSKNQVSLKMSSLTAADTAVYYCVRDPYYYGMDYWGQGTLVTVSS
VL: DIQMTQSPSSLSASVGDRITITCRASQDISIWLSWYQQKPGKAPKLLIYKASNLHTGVPSRFSGSGSGTDFTLTISSLQPEDFATYYCLQSQSFPRTFGQGTKLEIKR
For B1, in assay [1], the “EC50, PD-1/PD-L1 blockade (PDL1 Blockade, luciferase signal)” value (shortened to “EC50 … (PDL1 Blockade, luciferase signal)”) is 0.214 nM.

B2: h3C5H4-h3C5L2 (humanized 3C5, IgG) (antibody, V domains shown)
VH: B1 VH with V37I, T73N
VL: B1 VL
B2: in assay [1], the “EC50 … (PDL1 Blockade, luciferase signal)” value is 0.296 nM.

B3: h3C5H2-h3C5L2 (humanized 3C5, IgG) (antibody, V domains shown)
VH: B1 VH with I20L, V37I, F63L, L67V, V78F, M82L, L85V, V96A
VL: B1 VL
In the case of B3, in assay [1], the “EC50 … (PDL1 Blockade, luciferase signal)” value came out at 0.381 nM.

B4: h3C5H1-h3C5L1 (humanized 3C5, IgG) (antibody, V domains shown)
VH: B1 VH with I20L, V37I, L48I, F63L, L67V, K71V, V78F, M82L, L85V, V96A
VL: B1 VL with I19V
Turning to B4, the “EC50 … (PDL1 Blockade, luciferase signal)” value in assay [1] came to 0.221 nM.

B5: 3C5-2G12 IgM antibody (antibody)
heavy: QVQLKESGPGLVAPSQSLSITCTVSGFSLTSYDISWVRQPPGKGLEWLGVIWTGVGTNYNSAFMSRLSISKDNSKSQVFLKMNSLQTDDTAMYYCVRDPYYYGMDYWGQGTSVTVSSGSASAPTLFPLVSCENSPSDTSSVAVGCLAQDFLPDSITFSWKYKNNSDISSTRGFPSVLRGGKYAATSQVLLPSKDVMQGTDEHVVCKVQHPNGNKEKNVPLPVIAELPPKVSVFVPPRDGFFGNPRKSKLICQATGFSPRQIQVSWLREGKQVGSGVTTDQVQAEAKESGPTTYKVTSTLTIKESDWLSQSMFTCRVDHRGLTFQQNASSMCVPDQDTAIRVFAIPPSFASIFLTKSTKLTCLVTDLTTYDSVTISWTRQNGEAVKTHTNISESHPNATFSAVGEASICEDDWNSGERFTCTVTHTDLPSPLKQTISRPKGVALHRPDVYLLPPAREQLNLRESATITCLVTGFSPADVFVQWMQRGQPLSPEKYVTSAPMPEPQAPGRYFAHSILTVSEEEWNTGETYTCVVAHEALPNRVTERTVDKSTGKPTLYNVSLVMSDTAGTCY
light: DIQMNQSPSSLSASLGDTITITCRASQDISIWLSWYQQKPGNIPELLIYKASNLHTGVPPRFSGSGSGTDFTLTISSLQPEDIATYYCLQSQSFPRTFGGGTKLEIKRTVAAPSVFIFPPSDEQLKSGTASVVCLLNNFYPREAKVQWKVDNALQSGNSQESVTEQDSKDSTYSLSSTLTLSKADYEKHKVYACEVTHQGLSSPVTKSFNRGEC
Broadly, the EC50 (read off the curve) is the concentration at which the effect is half-maximal. Turning to B5, in assay [2], the “EC50, PD-1/PD-L1 blockade (% PDL1 Blockade, NFAT-luciferase reporter)” value amounted to 0.061 nM. The binding result in assay [3] and in assay [5] was “no binding (tested: 3 ug/mL)” in each case. The “EC50 in the PD-1/PD-L1 blockade assay (luciferase reporter activity, 4 parameter curve fit)” value in assay [4] was determined as 61000 nM. In addition, the “EC50 … (PDL1 Blockade, luciferase signal)” value in assay [1] was 0.094 nM. The “EC50 (read off the curve)” value in assay [6] is about 7 ng/mL.

B6: 3C5-2G12 IgG1 antibody (antibody)
heavy: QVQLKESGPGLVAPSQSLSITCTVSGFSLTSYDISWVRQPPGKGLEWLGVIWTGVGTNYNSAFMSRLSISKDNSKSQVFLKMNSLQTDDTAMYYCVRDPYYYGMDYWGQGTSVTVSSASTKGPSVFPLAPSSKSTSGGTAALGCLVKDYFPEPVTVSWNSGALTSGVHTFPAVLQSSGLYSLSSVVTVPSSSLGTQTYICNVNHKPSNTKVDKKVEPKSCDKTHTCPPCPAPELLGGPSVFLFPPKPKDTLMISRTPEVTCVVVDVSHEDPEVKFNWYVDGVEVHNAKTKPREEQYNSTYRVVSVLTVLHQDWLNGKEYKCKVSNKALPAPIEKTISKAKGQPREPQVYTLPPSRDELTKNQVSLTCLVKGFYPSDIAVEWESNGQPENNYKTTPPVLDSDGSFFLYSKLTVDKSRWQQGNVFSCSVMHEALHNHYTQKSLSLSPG
light: B5 light
notes: also called 3C5 (IgG); 3C5 antibody (IgG format)
On to B6, for which the “EC50, PD-1/PD-L1 blockade (% PDL1 Blockade, NFAT-luciferase reporter)” value in assay [2] stood at 0.21 nM. The binding result in assay [3] and in assay [5] was “no binding (tested: 3 ug/mL)” throughout. The “IC50 (read off the curve)” value in assay [7] is about 20 ng/mL; in assay [8] it was about 10 ng/mL. The “EC50 … (PDL1 Blockade, luciferase signal)” value in assay [1] worked out at 0.251 nM. Also, the half-maximal effective concentration (EC50 (read off the curve)) in assay [6] was about 6 ng/mL.

B7: 3C5-2G12 IgM + J antibody (antibody)
heavy: B5 heavy
light: B5 light
chain: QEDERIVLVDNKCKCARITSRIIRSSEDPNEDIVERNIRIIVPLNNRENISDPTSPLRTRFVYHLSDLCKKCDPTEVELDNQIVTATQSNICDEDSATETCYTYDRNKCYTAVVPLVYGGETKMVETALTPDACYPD
notes: also called 3C5.2G12 IgM+wtJ; 3C5.2G12 IgM+J chain
As for B7, the “EC50, PD-1/PD-L1 blockade (% PDL1 Blockade, NFAT-luciferase reporter)” value in assay [2] amounted to 0.096 nM. Moreover, the binding result in assay [3] and in assay [5] was “no binding (tested: 3 ug/mL)” each time. The “EC50 in the PD-1/PD-L1 blockade assay (luciferase reporter activity, 4 parameter curve fit)” value in assay [4] worked out at 96000 nM. Further, the “EC50 (read off the curve)” value in assay [6] was about 8 ng/mL.
